The conditions of series [1]: cited from earlier work. The text has this:
Although GLP-1 exerts significant effects in an individual’s body, its short half-life is a significant drawback. Many studies have been conducted in effort to overcome the hurdles of GLP-1 and to develop it as a medication. Traditional efforts to increase the size of small therapeutic proteins have included polyethylene glycol (PEG) conjugation. […] The in vitro activity of GLP1_8A37C-HSA was greater than that of GLP1_8G37C-HSA, probably due to the alanine to glycine change at position 8 (A8G) affecting the interactions with GLP-1R. […] Despite the low EC50 value of GLP1_ ...

In series [2] the target is GLP-1 receptor (GLP-1R) (UniProt P43220).
Sequence of GLP-1 receptor (GLP-1R) (P43220 24-463): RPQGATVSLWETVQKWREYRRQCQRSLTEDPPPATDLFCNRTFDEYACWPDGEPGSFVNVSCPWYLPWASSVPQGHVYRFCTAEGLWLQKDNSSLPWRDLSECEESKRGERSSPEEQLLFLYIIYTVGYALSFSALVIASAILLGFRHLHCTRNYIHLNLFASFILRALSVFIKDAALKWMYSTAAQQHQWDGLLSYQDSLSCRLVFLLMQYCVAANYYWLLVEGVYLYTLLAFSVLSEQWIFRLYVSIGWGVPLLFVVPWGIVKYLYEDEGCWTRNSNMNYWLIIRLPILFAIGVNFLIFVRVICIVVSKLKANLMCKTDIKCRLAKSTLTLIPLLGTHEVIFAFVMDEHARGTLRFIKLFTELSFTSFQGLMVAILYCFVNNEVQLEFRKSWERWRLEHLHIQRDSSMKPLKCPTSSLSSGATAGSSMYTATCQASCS
In series [3] the target is T1, GLP-1R (Homo sapiens, UniProt P43220).
T1 construct: Tango fusion cassette (named only as '_tango' in the plasmid name); host or cells: HEK293 (ATCC), transiently transfected
T1 sequence (P43220 24-463): as above
Put plainly: In vitro activity assay: cAMP production by GLP-1R-overexpressing HEK-293 cells. The series is classed as cell-based. The following applies: HEK293 cells transfected with pcDNA3.1-GLP-1R_tango; 15 min exposure; cAMP Parameter Assay Kit; normalized to cAMP with 1 μM GLP1_C; dose-response fit in OriginPro; n = 3/group. The procedure:
The plasmid pcDNA3.1-GLP-1R_tango (Addgene, Cambridge, MA, USA) and transfection reagent were then mixed in serum-free medium for 20 min, in accordance with the manufacturer’s recommendation. […] The levels of cAMP in the cell lysate were measured using the cAMP Parameter Assay Kit following the manufacturer’s protocol. […] The half maximal effective concentrations (EC50) of each curve were estimated from a dose–response curve using OriginPro software. Absorbance at 450 nm was monitored using a Varioskan Lux microplate reader (Thermo Fisher Scientific).
In general terms: Changes in cAMP serve as a functional read-out for many G protein-coupled receptors.

On to `CC[C@H](C)[C@H](NC(=O)[C@H](Cc1ccccc1)NC(=O)[C@H](CCC(=O)O)NC(=O)[C@H](CCCCN)NC(=O)[C@H](C)NC(=O)[C@H](C)NC(=O)[C@H](CCC(N)=O)NC(=O)CNC(=O)[C@H](CCC(=O)O)NC(=O)[C@H](CC(C)C)NC(=O)[C@H](Cc1ccc(O)cc1)NC(=O)[C@H](CO)NC(=O)[C@H](CO)NC(=O)[C@@H](NC(=O)[C@H](CC(=O)O)NC(=O)[C@H](CO)NC(=O)[C@@H](NC(=O)[C@H](Cc1ccccc1)NC(=O)[C@@H](NC(=O)CNC(=O)[C@H](CCC(=O)O)NC(=O)[C@H](C)NC(=O)[C@@H](N)Cc1c[nH]cn1)[C@@H](C)O)[C@@H](C)O)C(C)C)C(=O)N[C@@H](C)C(=O)N[C@@H](Cc1c[nH]c2ccccc12)C(=O)N[C@@H](CC(C)C)C(=O)N[C@H](C(=O)N[C@@H](CCCNC(=N)N)C(=O)NCC(=O)N[C@@H](CCCNC(=N)N)C(=O)NCC(=O)O)C(C)C` [GLP1_C], for which, in series [1] (in animal), the plasma half-life result is on record as “only a few minutes in animal”. Regarding “GLP1_8A37C-HSA (from UniProt P02768 25-609)”, in series [2], the EC50 of cAMP production by GLP-1R-overexpressing HEK-293 cells worked out at 185 nM.

In general, EC50 refers to the midpoint of the concentration-response curve. A high value points to a less potent agent. Turning to “GLP1_8A37C-HSA: GLP1-HSA conjugate with alanine at position 8 and albumin at its C-terminus (HAEGTFTSDVSSYLEGQAAKEFIAWLVRGRC; not fully specified; GLP-1(7-37), Ala8 kept, G37C; Cys37 is joined through TET-PEG4-maleimide / TCO-maleimide (IEDDA) to Cys34 of human serum albumin (carrier, UniProt P02768 25-609, not included))”, the EC50 in series [3] was 185 nM. This counts as sub-micromolar. Same read-out and setting: the same measure for “GLP1_8G16AzF-HSA: GLP1-HSA conjugate generated by HSA conjugation to position 16 of GLP-1 via SPAAC (HGEGTFTSDFSSYLEGQAAKEFIAWLVRGRG; not fully specified; GLP-1(7-37) A8G; Residue 16 (entry position 10) is p-azido-L-phenylalanine, written as parent Phe, joined by SPAAC through DBCO-PEG4-maleimide to Cys34 of human serum albumin (carrier, UniProt P02768)”: 1120 nM. “GLP1_8G37C-HSA (from UniProt P02768 25-609)” came in with an EC50 of cAMP production by GLP-1R-overexpressing HEK-293 cells in series [2] of 1340 nM. Take “GLP1_8G37C-HSA: GLP1-HSA conjugate, HSA conjugated to GLP1_8G37C via Michael addition and IEDDA (HGEGTFTSDVSSYLEGQAAKEFIAWLVRGRC; not fully specified; GLP-1(7-37) A8G, G37C; Cys37 is joined through TET-PEG4-maleimide / TCO-maleimide (IEDDA) to Cys34 of human serum albumin (carrier, UniProt P02768 25-609, not included); K34R is inferred from the expe)”: the EC50 in series [3] amounted to 1340 nM. As to Glucagon-like peptide-1 [GLP-1], the “half-life in the body” value in series [1] (reported, reference not given) is 2 to 3 min.

These data come from PMC7919490, “Effect of C-terminus Conjugation via Different Conjugation Chemistries on In Vivo Activity of Albumin-Conjugated Recombinant GLP-1” (Pharmaceutics, 2021).
